# In US20140087995A1 (published 2014):
# Numbered stars: 1 amine (or outer) side, 2 acyl side, 3 side chain; on linkers, the order of the positions; unused ones are H or OH. Bridge positions count the residues as written; N and C are the ends. Side chains are listed from the residue outwards. Ends that are not written are not given here. * marks the point of attachment. C20 diacid = O=C(O)CCCCCCCCCCCCCCCCCCC(=O)*; γGlu = O=C(O)[C@H](CCC(=O)[*:2])N[*:1]
# T1: rat calcitonin receptor (rat, UniProt P32214 25-516)
# T1 construct: whole, on cells; Membranes of transiently transfected BHK tk'ts 13 cells (Assay VIII); also called rCTR
# T1 sequence (looked up): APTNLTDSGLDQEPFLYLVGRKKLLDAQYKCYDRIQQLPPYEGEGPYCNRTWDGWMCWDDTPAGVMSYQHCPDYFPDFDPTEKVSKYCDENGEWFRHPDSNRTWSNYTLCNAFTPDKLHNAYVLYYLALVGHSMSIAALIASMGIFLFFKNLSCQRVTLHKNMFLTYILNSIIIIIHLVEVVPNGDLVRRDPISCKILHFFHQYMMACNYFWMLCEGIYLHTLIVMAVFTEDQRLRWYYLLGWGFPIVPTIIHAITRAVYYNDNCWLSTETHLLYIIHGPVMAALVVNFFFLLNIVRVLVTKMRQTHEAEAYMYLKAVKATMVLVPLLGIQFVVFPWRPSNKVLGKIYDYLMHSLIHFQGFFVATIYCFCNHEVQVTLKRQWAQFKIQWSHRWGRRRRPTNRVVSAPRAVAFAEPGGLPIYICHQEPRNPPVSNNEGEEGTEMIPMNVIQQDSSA
# T2: human calcitonin receptor (human, UniProt P30988 25-474)
# T2 construct: whole, on cells; Membranes of a stably transfected BHK cell line (Assay VII); also called hCTR; hCT
# T2 sequence (looked up): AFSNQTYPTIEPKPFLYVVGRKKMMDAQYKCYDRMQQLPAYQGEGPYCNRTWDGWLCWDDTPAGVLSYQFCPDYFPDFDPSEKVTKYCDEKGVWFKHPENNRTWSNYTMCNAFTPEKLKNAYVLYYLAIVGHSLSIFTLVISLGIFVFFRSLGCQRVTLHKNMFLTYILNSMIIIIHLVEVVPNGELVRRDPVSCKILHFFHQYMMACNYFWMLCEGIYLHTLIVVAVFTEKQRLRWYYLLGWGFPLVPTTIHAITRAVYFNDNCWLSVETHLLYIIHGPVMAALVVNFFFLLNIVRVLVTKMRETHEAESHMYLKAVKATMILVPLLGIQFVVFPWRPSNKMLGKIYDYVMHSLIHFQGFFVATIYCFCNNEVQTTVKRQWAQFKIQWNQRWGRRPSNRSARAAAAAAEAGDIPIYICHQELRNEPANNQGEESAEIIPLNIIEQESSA
# T3: rat amylin receptor (rat calcitonin receptor + rat RAMP 3) (rat, UniProt P32214 25-516; Q9JJ73 23-147)
# T3 construct: whole, on cells; Membranes of transiently transfected BHK tk'ts 13 cells (Assay VI); also called rAmylin-R; rat amylin 3(a) receptor
# T3 sequence (looked up) 1: T1 sequence (looked up)
# T3 sequence (looked up) 2: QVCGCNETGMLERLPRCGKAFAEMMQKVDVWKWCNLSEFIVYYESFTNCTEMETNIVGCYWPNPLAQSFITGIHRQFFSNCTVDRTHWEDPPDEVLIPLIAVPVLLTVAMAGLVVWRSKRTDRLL
# B1: N^ε1-[(4S)-4-carboxy-4-(19-carboxynonadecanoylamino)butanoyl]-[Ala14,Arg17,Pro21,Pro27,Pro34]-h-amylin (peptide)
# peptide: K([γGlu-C20 diacid])CNTATCATQRLAAFLRHSSPNFGAIPSSTNVGPNTY-NH2
# modifications: disulfide 2-7; N-terminus assumed
# SMILES: CC[C@H](C)[C@H](NC(=O)[C@H](C)NC(=O)CNC(=O)[C@H](Cc1ccccc1)NC(=O)[C@H](CC(N)=O)NC(=O)[C@@H]1CCCN1C(=O)[C@H](CO)NC(=O)[C@H](CO)NC(=O)[C@H](Cc1c[nH]cn1)NC(=O)[C@H](CCCNC(=N)N)NC(=O)[C@H](CC(C)C)NC(=O)[C@H](Cc1ccccc1)NC(=O)[C@H](C)NC(=O)[C@H](C)NC(=O)[C@H](CC(C)C)NC(=O)[C@H](CCCNC(=N)N)NC(=O)[C@H](CCC(N)=O)NC(=O)[C@@H](NC(=O)[C@H](C)NC(=O)[C@@H]1CSSC[C@H](NC(=O)[C@@H](N)CCCCNC(=O)CC[C@H](NC(=O)CCCCCCCCCCCCCCCCCCC(=O)O)C(=O)O)C(=O)N[C@@H](CC(N)=O)C(=O)N[C@@H]([C@@H](C)O)C(=O)N[C@@H](C)C(=O)N[C@@H]([C@@H](C)O)C(=O)N1)[C@@H](C)O)C(=O)N1CCC[C@H]1C(=O)N[C@@H](CO)C(=O)N[C@@H](CO)C(=O)N[C@H](C(=O)N[C@@H](CC(N)=O)C(=O)N[C@H](C(=O)NCC(=O)N1CCC[C@H]1C(=O)N[C@@H](CC(N)=O)C(=O)N[C@H](C(=O)N[C@@H](Cc1ccc(O)cc1)C(N)=O)[C@@H](C)O)C(C)C)[C@@H](C)O
# notes: also called compound 94
# B2: N^ε1-[(4S)-4-carboxy-4-(19-carboxynonadecanoylamino)butanoyl]-[Glu14,Arg17,Pro21,Pro27,Arg34,Glu35]-h-amylin (peptide)
# peptide: K([γGlu-C20 diacid])CNTATCATQRLAEFLRHSSPNFGAIPSSTNVGRETY-NH2
# modifications: disulfide 2-7; N-terminus assumed
# SMILES: CC[C@H](C)[C@H](NC(=O)[C@H](C)NC(=O)CNC(=O)[C@H](Cc1ccccc1)NC(=O)[C@H](CC(N)=O)NC(=O)[C@@H]1CCCN1C(=O)[C@H](CO)NC(=O)[C@H](CO)NC(=O)[C@H](Cc1c[nH]cn1)NC(=O)[C@H](CCCNC(=N)N)NC(=O)[C@H](CC(C)C)NC(=O)[C@H](Cc1ccccc1)NC(=O)[C@H](CCC(=O)O)NC(=O)[C@H](C)NC(=O)[C@H](CC(C)C)NC(=O)[C@H](CCCNC(=N)N)NC(=O)[C@H](CCC(N)=O)NC(=O)[C@@H](NC(=O)[C@H](C)NC(=O)[C@@H]1CSSC[C@H](NC(=O)[C@@H](N)CCCCNC(=O)CC[C@H](NC(=O)CCCCCCCCCCCCCCCCCCC(=O)O)C(=O)O)C(=O)N[C@@H](CC(N)=O)C(=O)N[C@@H]([C@@H](C)O)C(=O)N[C@@H](C)C(=O)N[C@@H]([C@@H](C)O)C(=O)N1)[C@@H](C)O)C(=O)N1CCC[C@H]1C(=O)N[C@@H](CO)C(=O)N[C@@H](CO)C(=O)N[C@H](C(=O)N[C@@H](CC(N)=O)C(=O)N[C@H](C(=O)NCC(=O)N[C@@H](CCCNC(=N)N)C(=O)N[C@@H](CCC(=O)O)C(=O)N[C@H](C(=O)N[C@@H](Cc1ccc(O)cc1)C(N)=O)[C@@H](C)O)C(C)C)[C@@H](C)O
# B3: N^ε1-[(4S)-4-carboxy-4-(19-carboxynonadecanoylamino)butanoyl]-[Glu14,Arg17,Pro21,Pro27,Pro34,Arg35]-h-amylin (peptide)
# peptide: K([γGlu-C20 diacid])CNTATCATQRLAEFLRHSSPNFGAIPSSTNVGPRTY-NH2
# modifications: disulfide 2-7; N-terminus assumed
# SMILES: CC[C@H](C)[C@H](NC(=O)[C@H](C)NC(=O)CNC(=O)[C@H](Cc1ccccc1)NC(=O)[C@H](CC(N)=O)NC(=O)[C@@H]1CCCN1C(=O)[C@H](CO)NC(=O)[C@H](CO)NC(=O)[C@H](Cc1c[nH]cn1)NC(=O)[C@H](CCCNC(=N)N)NC(=O)[C@H](CC(C)C)NC(=O)[C@H](Cc1ccccc1)NC(=O)[C@H](CCC(=O)O)NC(=O)[C@H](C)NC(=O)[C@H](CC(C)C)NC(=O)[C@H](CCCNC(=N)N)NC(=O)[C@H](CCC(N)=O)NC(=O)[C@@H](NC(=O)[C@H](C)NC(=O)[C@@H]1CSSC[C@H](NC(=O)[C@@H](N)CCCCNC(=O)CC[C@H](NC(=O)CCCCCCCCCCCCCCCCCCC(=O)O)C(=O)O)C(=O)N[C@@H](CC(N)=O)C(=O)N[C@@H]([C@@H](C)O)C(=O)N[C@@H](C)C(=O)N[C@@H]([C@@H](C)O)C(=O)N1)[C@@H](C)O)C(=O)N1CCC[C@H]1C(=O)N[C@@H](CO)C(=O)N[C@@H](CO)C(=O)N[C@H](C(=O)N[C@@H](CC(N)=O)C(=O)N[C@H](C(=O)NCC(=O)N1CCC[C@H]1C(=O)N[C@@H](CCCNC(=N)N)C(=O)N[C@H](C(=O)N[C@@H](Cc1ccc(O)cc1)C(N)=O)[C@@H](C)O)C(C)C)[C@@H](C)O
# B4: N^ε1-[(4S)-4-carboxy-4-(19-carboxynonadecanoylamino)butanoyl]-[Arg14,Arg17,Pro21,Pro27]-h-amylin (peptide)
# peptide: K([γGlu-C20 diacid])CNTATCATQRLARFLRHSSPNFGAIPSSTNVGSNTY-NH2
# modifications: disulfide 2-7; N-terminus assumed
# SMILES: CC[C@H](C)[C@H](NC(=O)[C@H](C)NC(=O)CNC(=O)[C@H](Cc1ccccc1)NC(=O)[C@H](CC(N)=O)NC(=O)[C@@H]1CCCN1C(=O)[C@H](CO)NC(=O)[C@H](CO)NC(=O)[C@H](Cc1c[nH]cn1)NC(=O)[C@H](CCCNC(=N)N)NC(=O)[C@H](CC(C)C)NC(=O)[C@H](Cc1ccccc1)NC(=O)[C@H](CCCNC(=N)N)NC(=O)[C@H](C)NC(=O)[C@H](CC(C)C)NC(=O)[C@H](CCCNC(=N)N)NC(=O)[C@H](CCC(N)=O)NC(=O)[C@@H](NC(=O)[C@H](C)NC(=O)[C@@H]1CSSC[C@H](NC(=O)[C@@H](N)CCCCNC(=O)CC[C@H](NC(=O)CCCCCCCCCCCCCCCCCCC(=O)O)C(=O)O)C(=O)N[C@@H](CC(N)=O)C(=O)N[C@@H]([C@@H](C)O)C(=O)N[C@@H](C)C(=O)N[C@@H]([C@@H](C)O)C(=O)N1)[C@@H](C)O)C(=O)N1CCC[C@H]1C(=O)N[C@@H](CO)C(=O)N[C@@H](CO)C(=O)N[C@H](C(=O)N[C@@H](CC(N)=O)C(=O)N[C@H](C(=O)NCC(=O)N[C@@H](CO)C(=O)N[C@@H](CC(N)=O)C(=O)N[C@H](C(=O)N[C@@H](Cc1ccc(O)cc1)C(N)=O)[C@@H](C)O)C(C)C)[C@@H](C)O
# notes: also called compound 83
# B5: N^ε1-[(4S)-4-carboxy-4-(19-carboxynonadecanoylamino)butanoyl]-[Glu14,Arg17,Pro21,Pro27,His34,Glu35]-h-amylin (peptide)
# peptide: K([γGlu-C20 diacid])CNTATCATQRLAEFLRHSSPNFGAIPSSTNVGHETY-NH2
# modifications: disulfide 2-7; N-terminus assumed
# SMILES: CC[C@H](C)[C@H](NC(=O)[C@H](C)NC(=O)CNC(=O)[C@H](Cc1ccccc1)NC(=O)[C@H](CC(N)=O)NC(=O)[C@@H]1CCCN1C(=O)[C@H](CO)NC(=O)[C@H](CO)NC(=O)[C@H](Cc1c[nH]cn1)NC(=O)[C@H](CCCNC(=N)N)NC(=O)[C@H](CC(C)C)NC(=O)[C@H](Cc1ccccc1)NC(=O)[C@H](CCC(=O)O)NC(=O)[C@H](C)NC(=O)[C@H](CC(C)C)NC(=O)[C@H](CCCNC(=N)N)NC(=O)[C@H](CCC(N)=O)NC(=O)[C@@H](NC(=O)[C@H](C)NC(=O)[C@@H]1CSSC[C@H](NC(=O)[C@@H](N)CCCCNC(=O)CC[C@H](NC(=O)CCCCCCCCCCCCCCCCCCC(=O)O)C(=O)O)C(=O)N[C@@H](CC(N)=O)C(=O)N[C@@H]([C@@H](C)O)C(=O)N[C@@H](C)C(=O)N[C@@H]([C@@H](C)O)C(=O)N1)[C@@H](C)O)C(=O)N1CCC[C@H]1C(=O)N[C@@H](CO)C(=O)N[C@@H](CO)C(=O)N[C@H](C(=O)N[C@@H](CC(N)=O)C(=O)N[C@H](C(=O)NCC(=O)N[C@@H](Cc1c[nH]cn1)C(=O)N[C@@H](CCC(=O)O)C(=O)N[C@H](C(=O)N[C@@H](Cc1ccc(O)cc1)C(N)=O)[C@@H](C)O)C(C)C)[C@@H](C)O
# notes: also called compound 107
# Target: T1, rat calcitonin receptor
# Test: SPA competition with 125I-calcitonin, membranes of BHK cells with rat calcitonin receptor (Assay VIII)
row,IC50,Binder
1,111 nM,B1
2,86.1 nM,B2
3,15.4 nM,B3
4,140 nM,B4
5,33.1 nM,B5

# Target: T2, human calcitonin receptor
# Test: ratio IC50 human calcitonin receptor / IC50 human amylin receptor (reference)
# Outline: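 Competition binding by SPA with cell membranes (35 ng/μL) and SPA beads in 50 mM Hepes pH 7.4 with 1 mM CaCl2, 5 mM MgCl2, 0.1% OA and 0.02% Tween20. Incubated 120 min at 25 °C with shaking, then counted.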
row,Ratio hCT/hAmylin binding,Binder
1,46.3,B1
2,28.5,B2
3,38.6,B3
4,146,B4
5,11.1,B5

# Target: T1, rat calcitonin receptor
# Test: ratio IC50 rat calcitonin receptor / IC50 rat amylin receptor (reference)
row,Ratio rCT/rAmylin binding,Binder
1,280,B1
2,81.1,B2
3,45.5,B3
4,49.7,B4
5,34.6,B5

# Target: T3, rat amylin receptor (rat calcitonin …)
# Test: SPA competition with 125I-rat amylin, membranes of BHK cells with rat calcitonin receptor + rat RAMP3 (Assay VI)
row,IC50,Binder
1,0.397 nM,B1
2,1.06 nM,B2
3,0.339 nM,B3
4,2.83 nM,B4
5,0.958 nM,B5
